From article doi:10.1101/2023.05.01.538945, “Structural basis of Gabija anti-phage defense and viral immune evasion” (bioRxiv, 2023)

B2: Bacillus cereus VD045 GajA (Gabija protein A), co-expressed with GajB, tag removed (enzyme)
chain: KFSNITIKNFRNFEKVNINLDNKNVIFGMNDIGKTNFLYALRFLLDKEIRKFGFNKSDYHKHDTSKKIEIILTLDLSNYEKDEDTKKLISVVKGARTSANADVFYIALESKYDDKELYGNIILKWGSELDNLIDIPGRGNINALDNVFKVIYINPLVDLDKLFAQNKKYIFEESQGNESDEGILNNIKSLTDQVNQQIGEMTIIKGFQQEITSEYRSLKKEEVSIELKSEMAIKGFFSDIIPYIKKDGDSNYYPTSGDGRRKMLSYSIYNYLAKKKYEDKIVIYLIEEPEISLHRSMQIALSKQLFEQSTYKYFFLSTHSPELLYEMDNTRLIRVHSTEKVVCSSHMYNVEEAYGSVKKKLNKALSSALFAERVLLIEGPSEKILFEKVLDEVEPEYELNGGFLLEVGGTYFNHYVCTLNDLGITHIIKTDNDLKSKKGKKGVYELLGLNRCLNLLGRENLDEITIDIPEDIKGKKKKERLNERKKEIFKQYKNEVGEFLGERIYLSEIDLENDLYSAIGESMKRIFENEDPVHYLQKSKLFNMVELVNNLSTKDCFDVFEHEKFACLKELVGSDRG
notes: GajA (Gabija protein A), Class 2 OLD nuclease, Bacillus cereus VD045, IMG ID 2519684552; codon-optimized synthetic gene; GajA chain of the GajAB crystal structure; The 5xGS linker probably stays on GajA after SENP2 cleavage (surmise); also called BcGajA; source: E. coli BL21(DE3) or BL21(DE3)-RIL, co-expressed with GajB, purified (Ni-NTA, SUMO2 cleavage by hSENP2, SEC); not shown: …

Columns and labels:
[1] = target: B2; assay: crystal structure; GajAB co-expressed in E. coli and purified as a complex; hanging drop, 18°C, 100 mM HEPES-NaOH pH 7.5, 2.4% PEG-400, 2.2 M ammonium sulfate; 3.0 Å; conditions: both partners purified
[2] = target: the molecule itself; assay: as above
[3] = target: the molecule itself; assay: SEC; 16/600 S200 (Superdex 200); purified recombinant BcGajA alone, BcGajB alone and the co-expressed BcGajAB complex

B1: Bacillus cereus VD045 GajB (Gabija protein B), untagged, co-expressed with GajA (enzyme)
chain: SREQIIKDGGNILVTAGAGSGKTTILVSKIEADLKENKTHYSIAAVTFTNKAAKEIEGRLGYSSRGNFIGTNDGFVESEIIRPFIKDAFGNDYPDNFTAEYFDNQFASYDKGLQVLKYQNILGTYSNPKKNFKFQLALDILKKSLVARQYIFSKYFKIFIDEYQDSDKDMHNLFMYLKDQLKIKLFIVGDPKQSIYIWRGAEPENFNGLIENSTDFNKYHLTSNFRCCQDIQNYSNLFNEETRSLIKEKNEVQNVISIADDMPISDILLKLTEEKQVLNIEAELVILVRRRNQAIEIMKELNEEGFNFIFIPQTPLDRATPNATLLKEVIKYVKNDRYSIYDLAAEIVGNLSSREIKEIQKIINELLVPNINQVLINQVLINLFAKLEITLDTREITAFTEVMMTNEFDIAFDTNEYLHKIFTVHSAKGLEFNQVIITASDYNVHYNRDTNEHYVATTRAKDKLIVIMDNKKYSDYIETLMKELKIKNIIKSI
notes: GajB (Gabija protein B), Superfamily 1A helicase, Bacillus cereus VD045, IMG ID 2519684553; codon-optimized synthetic gene; GajB chain of the GajAB crystal structure and of the GajAB-Gad1 cryo-EM structure; also called BcGajB
stoichiometry N [1]: 1 GajB per GajA (4:4)

B2
stoichiometry N [2]: 4

B3: Bacillus cereus VD045 GajA alone, C-terminal 6xHis (enzyme)
chain: KFSNITIKNFRNFEKVNINLDNKNVIFGMNDIGKTNFLYALRFLLDKEIRKFGFNKSDYHKHDTSKKIEIILTLDLSNYEKDEDTKKLISVVKGARTSANADVFYIALESKYDDKELYGNIILKWGSELDNLIDIPGRGNINALDNVFKVIYINPLVDLDKLFAQNKKYIFEESQGNESDEGILNNIKSLTDQVNQQIGEMTIIKGFQQEITSEYRSLKKEEVSIELKSEMAIKGFFSDIIPYIKKDGDSNYYPTSGDGRRKMLSYSIYNYLAKKKYEDKIVIYLIEEPEISLHRSMQIALSKQLFEQSTYKYFFLSTHSPELLYEMDNTRLIRVHSTEKVVCSSHMYNVEEAYGSVKKKLNKALSSALFAERVLLIEGPSEKILFEKVLDEVEPEYELNGGFLLEVGGTYFNHYVCTLNDLGITHIIKTDNDLKSKKGKKGVYELLGLNRCLNLLGRENLDEITIDIPEDIKGKKKKERLNERKKEIFKQYKNEVGEFLGERIYLSEIDLENDLYSAIGESMKRIFENEDPVHYLQKSKLFNMVELVNNLSTKDCFDVFEHEKFACLKELVGSDRG
notes: GajA, Bacillus cereus VD045, IMG ID 2519684552; also called BcGajA; source: E. coli BL21(DE3) or BL21(DE3)-RIL, purified (Ni-NTA, SEC); for the Ni-NTA co-purification co-expressed with Shewanella phage 1/4 Gad1; not shown: 6xHis, C-terminal, kept
stoichiometry N [3]: 4
